Data from patent US20140221623A1 (Ablynx, published 2014).
Values joined by “and” are separate entries in the source; they are usually repeats but may differ in a detail not shown here. Equal entries are not always repeated.

Experiments:
[1] = molecular target: T1, Human soluble IL6-R (human, UniProt P08887 20-358); assay: SPR (Biacore), off-rate
T1 construct: Bought soluble receptor; biotinylated in some Alphascreen assays; also called sIL6-R; hIL-6R
T1 sequence (looked up): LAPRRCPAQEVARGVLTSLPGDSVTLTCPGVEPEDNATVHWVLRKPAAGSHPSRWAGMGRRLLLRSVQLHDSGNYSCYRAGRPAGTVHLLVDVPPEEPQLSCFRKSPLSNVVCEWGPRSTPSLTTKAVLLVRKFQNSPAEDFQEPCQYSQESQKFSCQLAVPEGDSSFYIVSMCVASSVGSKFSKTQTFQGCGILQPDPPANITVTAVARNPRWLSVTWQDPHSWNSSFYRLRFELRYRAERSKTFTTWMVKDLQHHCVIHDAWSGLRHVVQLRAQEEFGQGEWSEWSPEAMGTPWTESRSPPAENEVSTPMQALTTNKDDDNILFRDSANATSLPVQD

[2] = molecular target: T1, Human soluble IL6-R; assay: SPR (Biacore 3000), IL6-R on CM5 chip
[3] = molecular target: T2, IL6-R on U266 cells (human, UniProt P08887 20-468); assay: cell-based or functional assay
T2 sequence (looked up): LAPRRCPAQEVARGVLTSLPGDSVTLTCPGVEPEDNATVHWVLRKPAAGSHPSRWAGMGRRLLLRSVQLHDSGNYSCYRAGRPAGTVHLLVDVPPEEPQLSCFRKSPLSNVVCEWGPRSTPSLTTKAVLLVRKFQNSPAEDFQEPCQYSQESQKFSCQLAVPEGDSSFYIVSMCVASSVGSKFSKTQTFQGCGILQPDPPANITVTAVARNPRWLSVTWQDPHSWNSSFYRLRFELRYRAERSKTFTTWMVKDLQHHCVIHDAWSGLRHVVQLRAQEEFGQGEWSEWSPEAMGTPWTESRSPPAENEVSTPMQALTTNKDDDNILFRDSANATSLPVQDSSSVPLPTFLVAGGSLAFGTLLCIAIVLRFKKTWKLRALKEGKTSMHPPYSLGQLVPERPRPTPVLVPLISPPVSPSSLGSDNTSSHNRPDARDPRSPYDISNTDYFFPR

[4] = molecular target: T2, IL6-R on U266 cells; assay: cell-based or functional assay; remark: listed apart in the source
[5] = molecular target: T1, Human soluble IL6-R; assay: Alphascreen, 100 nM Nanobody; competitor Reference-Fab on beads

koff [1] | also measured | Binder
0.000331 s⁻¹ |  | PMP 34 D2 (VHH, also called PMP34D2(t)) VHH: EVQLVESGGGLVQPGGSLRLSCAASGFTLDYFAIGWFRQAPGKERERVSCISSSDGSTYYADSVKGRFTISRDNAKNTVYLQMNSLKPEDTAVYYCATDRSVYYCSGGAPEEYYWGQGTQVTVSS
0.000503 s⁻¹ |  | PMP 34 E9 (VHH, also called PMP34E9(t)) VHH: EVQLVESGGGLVQPGGSLRLSCAASGFTLDYYAIGWFRQAPGKEREGVSCISSSDGSTYYADSVKGRFTISRDNAKNTVYLQMNSLKPEDTAAYYCATDRSVYYCSGDAPEEYYWGQGTQVTVSS
0.00014 s⁻¹ |  | PMP 34 G3 (VHH) VHH: EVQLVESGGGLVQPGGSLRLSCAASGFTLDYYAIGWFRQAPGKERERVSCISSSDGSTYYADSVKGRFTISRDNAKNTVYLQMNSLKPEDTAAYYCATDRSVYYCSGGAPEEYYWGQGTQVTVSS
0.001 s⁻¹ |  | PMP 30 B1 (VHH, also called PMP30B1(t)) VHH: EVQLVESGGGLVQPGGSLRLSCAASGFTLDYYAIGWWRQAPGKGREGVSCISSGDGSTNYADSVKGRFTISRDNAKNTVYLQMNSLKPEDTAVYYCATDRSVYYCSGGAPEEYYWGQGTQVTVSS
0.00168 s⁻¹ |  | PMP 34 A5 (VHH, also called PMP34A5(t)) VHH: EVQLVESGGGLVQPGGSLRLSCAASGFTLGYFAIGWFRQAPGKEREGVSCISSSDGSTYYADSVKGRFTVSRDNAKNTVYLQMNSLKPEDTAVYYCATDRSVYYCSGGAPEEYYWGQGTQVTVSS
0.00119 s⁻¹ |  | PMP 33 G3 (VHH, also called PMP33G3(t)) VHH: EVQLVESGGGLVQPGGSLRLSCAASGFTLGYFAIGWFRQAPGKEREGVSCISSSDGSAYYADSVKGRFTVSRDNAKNTVYLQMNSLKPEDTAVYYCATDRSVYYCSGGAPEEYYWGQGTQVTVSS
 | Kd [2]: 0.86 nM; koff [2]: 0.00066 s⁻¹; kon [2]: 768000 M⁻¹ s⁻¹; IC50, XG-1 proliferation [3]: 5.99 nM | Reference Fab (Fab, V domains shown, Anti-human IL-6R Fab according to EP 0 628 639, made in E. coli periplasm; also called Tocilizumab-Fab) VH: QVQLQESGPGLVRPSQTLSLTCTVSGYSITSDHAWSWVRQPPGRGLEWIGYISYSGITTYNPSLKSRVTMLRDTSKNQFSLRLSSVTAADTAVYYCARSLARTTAMDYWGQGSLVTVSS VL: DIQMTQSPSSLSASVGDRVTITCRASQDISSYLNWYQQKPGKAPKLLIYYTSRLHSGVPSRFSGSGSGTDFTFTISSLQPEDIATYYCQQGNTLPYTFGQGTKVEIKR
 | Kd [2]: 10.2 nM; koff [2]: 0.00197 s⁻¹; kon [2]: 194000 M⁻¹ s⁻¹; IC50, TF-1 proliferation [4]: 42.9 nM; % binding retained in competition with Reference-Fab [5]: 99%; IC50, XG-1 proliferation [3]: 36.6 nM | IL6R08 (VHH, also called PMP34A12; PMP 34 A12) VHH: EVQLVESGGGLVQPGGSLRLSCVASGFSLDYYVIGWFRQAPGKEREGVSCISSSDGSTYYADSVKGRFTISRDNAKNTVYLQMNSLKPEDTAVYYCAADLLRTPEFCVDSAPYDYWGQGTQVTVSS
0.00164 s⁻¹ |  | PMP 30 G11 (VHH, also called PMP30G11(t)) VHH: EVQLVESGGGLVQPGGSLRLSCVASGFSLDYYVIGWFRQAPGKEREGVSCISSSDGSTYYADSVKGRFTISRDNAKNTVYLQMNSLKPEDTAVYYCAADLLRTPEFCVDSAPYDYWGQGTQVTVSS
0.00257 s⁻¹ |  | PMP 30 A2 (VHH, also called PMP30A2(t)) VHH: EVQLVESGGGLVQPGGSLRLSCAASGFTLDYYVIGWFRQAPGKEREGVSCIGSSDDSTYYADSVKGRFTISRDNAKNTVYLQMNSLKPEDTAVYYCAADLLRTPEFCTDSAPYDYWGQGTQVTVSS
0.000842 s⁻¹ |  | PMP 30 B6 (VHH, also called PMP30B6(t)) VHH: EVQLVESGGGLVQPGGSLRLSCAASGFTLDYYVIGWFRQAPGKEREAVACISSSDRSTYYADSVKGRFTISRDNAKNTGYLQMNSLKPEDTAVYYCAADLLRTPEFCSDSAPYDYWGQGTQVTVSS
0.000435 s⁻¹ |  | PMP 34 C3 (VHH, also called PMP34C3(t)) VHH: EVQLVESGGGLVQPGGSLRLSCVASGFSLDYYVIGWFRQAPGKEREGVSCISSSDGSTYYADSVKGRFTISRDNAKNTVYLQMNSLKPEDTAVYYCAADLLRTPEFCVDSAPYDYWGRGTQVTVSS
 | Kd [2]: 0.418 nM; koff [2]: 0.00011 s⁻¹; kon [2]: 262000 M⁻¹ s⁻¹; % binding retained in competition with Reference-Fab [5]: 49% | IL6R01 (VHH, also called PMP28E11; PMP 28 E11) VHH: EVQLVESGGGFVQAGGSLRLSCIASGDNFSINRMGWYRQALGKQRELVAIITNHGSTNYADAVKGRFTISRDYAKNTVYLQMNGLKPDDTAVYYCNAYISEVGTWRDDYWGQGIQVTVSS
0.00294 s⁻¹ | Kd [2]: 5.9 nM; koff [2]: 0.00294 s⁻¹ and 0.00495 s⁻¹; kon [2]: 840000 M⁻¹ s⁻¹; IC50, TF-1 proliferation [4]: 29.7 nM; % binding retained in competition with Reference-Fab [5]: 86%; IC50, XG-1 proliferation [3]: 31 nM | IL6R02 (VHH, also called PMP30C11; PMP 30 C11) VHH: EVQLVESGGGLVQAGGSLRLSCAASGRTFSSYDMGWYRQAPGKEREFVAVISRSGSSTYYADSVKGRFTISRDNAKNTVYLQMNSLKPEDTAIYYCKAEVVAGDYDYWGQGTQVTVSS
0.00367 s⁻¹ |  | PMP 34 C11 (VHH) VHH: EVQLVESGGGLVQPGGSLRLSCAAAGFTLDYSAIGWFRQAPGKEREMFSCISGSDGSTWYADSVAGRFTISFDNAKNTVYLQMNSLKPEDTGLYICAVTGGVRGPCAYEYEYWGQGTQVTVSS
0.002 s⁻¹ |  | PMP 34 E10 (VHH) VHH: EVQLVESGGGLVQAGGSLRLSCAASGRTFSSYAMGWGRQAPGKEREFVATISWSGGSTYYADSVKGRFTISRDNAKNTVYLQMNSLKPEDTAVYYCAADLAEFKYSDYADYWGQGTQVTVSS
0.00134 s⁻¹ |  | PMP 28 B1 (VHH, also called PMP28B1(t)) VHH: EVQLVESGGGLVQPGGSLRLSCAASGFTLNYYAIGWFRQAPGKEREGVSCISSSDGSTYYADSVKGRFTISRDNAKNTFYLQMNSLKPEDTAVYYCAAEGLGDSDSPCGAAWYNDYWGQGTQVTVSS
0.00193 s⁻¹ |  | PMP 28 G3 (VHH) VHH: EVQLVESGGGLVQAGGSLRLSCTASGNIFSTETMGWYRQPPGKQRDVVATITHGGTTNYADSVKGRFTISRDNRKNTVYLQMNSLKPEDTGVYYCNARSSWYSPEYWGQGTQVTVSS
0.00126 s⁻¹ |  | PMP 28 F7 (VHH, also called PMP28F7(t)) VHH: EVQLVESGGGLVQPGGSLRLSCAASGFTFGSYDMSWVRQAPGKGPEWVSAINSGGGSTYYADSVKGRFTISRDNAKNTLYLQMNSLKPEDTAVYYCATDWRYSDYDLPLPPPGDYWGQGTQVTVSS
0.00124 s⁻¹ |  | PMP 31 B11 (VHH, also called PMP31B11(t)) VHH: EVQLVESGGGLVQPGGSLRLSCAASGFTFGSYDMSWVRQAPGKGPEWVSAINSGGGSTYYADSVKGRFTISRDNAKNTLYLQMNSLKPEDTAVYYCATDWRYSDYDLPLPPPGDYWGQGTQVTVSS
0.00128 s⁻¹ |  | PMP 31 B4 (VHH, also called PMP31B4(t)) VHH: EVQLVESGGGLVQPGGSLRLSCAASGFTFGSYDMSWVRQAPGKGPEWVSAINSGGGSTYYADSVKGRFTISRDNAKNTLYLQMNSLKPEDTAVYYCATDWRYSDYDLPLPPPGDYWGQGTQVTVSS
0.00123 s⁻¹ |  | PMP 31 F4 (VHH, also called PMP31F4(t)) VHH: EVQLVESGGGLVQPGGSLRLSCAASGFTFGSYDMSWVRQAPGKGPEWVSAINSGGGSTYYADSVKGRFTISRDNAKNTLYLQMNSLKPEDTAVYYCATDWRYSDYDLPLPPPGDYWGQGTQVTVSS
0.00125 s⁻¹ |  | PMP 31 C8 (VHH, also called PMP31C8(t)) VHH: EVQLVESGGGLVQPGGSLRLSCAASGFTFGSYDMSWVRQAPGKGPEWVSAINSGGGSTYYADSVKGRFTISRDNAKNTLYLQMNSLKPEDTAVYYCATDWRYSDYDLPLPPPGDYWGQGTQVTVSS
0.00128 s⁻¹ |  | PMP 32 H5 (VHH, also called PMP32H5(t)) VHH: EVQLVESGGGLVQPGGSLRLSCAASGFTFGSYDMSWVRQAPGKGPEWVSAINSGGGSTYYADSVKGRFTISRDNAKNTLYLQMNSLKPEDTAVYYCATDWRYSDYDLPLPPPGDYWGQGTQVTVSS
0.00247 s⁻¹ |  | PMP 28 H6 (VHH, also called PMP28H6(t)) VHH: EVQLVESGGGLVQPGGSLRLSCAASGFTFGSYDMSWVRQAPGKGPEWVSAINSGGGSTYYADSVKGRFTISRDNAKNTLYLQMNSLKPEDTAVYYCATDWRYSDYDLPLPPPGDYWGQGTQVTVSS
